Legend:
[1] = target: E6 F47R 4C4S, a soluble mutant of HPV16 E6 (HPV16); assay: ITC
e6ap peptide = assay: ITC

Row | Substance | Kd [1] | Kd (e6ap peptide)
1 | LxxLL peptide (E6-binding LxxLL motif of E6AP) | 42 µM | 
2 | E6 F47R 4C4S, a soluble mutant of HPV16 E6 (natural protein) |  | > 10 µM
